Measurements reported in the Immune Epitope Database (IEDB).

Key:
HLA-A*01:01 = test: IEDB peptide-MHC binding, purified MHC/direct/fluorescence; filed as Kd, often an IC50 or EC50 that approximates it; ≥ and ≤ were set here for values at or beyond the usual limits of such assays; settings: source organism: Marburg virus - Musoke, Kenya, 1980
HLA-A*02:01 [1] = test: as above; settings: source organism: Marburg virus - Musoke, Kenya, 1980
HLA-A*11:01 = test: as above
HLA-A*24:03 = test: as above
HLA-A*26:03 = test: as above; settings: source organism: Ravn virus - Ravn, Kenya, 1987
HLA-A*68:02 = test: as above
HLA-A*69:01 [2] = test: as above; settings: source organism: Marburg virus - Musoke, Kenya, 1980
HLA-B*07:02 = test: as above; settings: source organism: Marburg virus - Musoke, Kenya, 1980
HLA-B*15:01 [3] = test: as above; settings: source organism: Marburg virus - Musoke, Kenya, 1980
HLA-B*15:09 = test: as above; settings: source organism: Ravn virus - Ravn, Kenya, 1987
HLA-B*18:01 [4] = test: as above; settings: source organism: Marburg virus - Musoke, Kenya, 1980
HLA-B*39:01 [5] = test: as above; settings: source organism: Ravn virus - Ravn, Kenya, 1987
HLA-B*57:01 [6] = test: as above; settings: source organism: Marburg virus - Musoke, Kenya, 1980
HLA-B*58:01 = test: as above; settings: source organism: Ravn virus - Ravn, Kenya, 1987
HLA-A*02:06 = test: IEDB peptide-MHC binding, purified MHC/competitive/fluorescence; filed as Kd, often an IC50 or EC50 that approximates it; ≥ and ≤ were set here for values at or beyond the usual limits of such assays; settings: source organism: Orthomarburgvirus marburgense
HLA-A*26:02 = test: as above; settings: source organism: Orthomarburgvirus marburgense
HLA-A*31:01 = test: as above
HLA-B*15:17 = test: as above
HLA-A*02:03 = test: IEDB peptide-MHC binding, purified MHC/direct/fluorescence; filed as Kd, often an IC50 or EC50 that approximates it; ≥ and ≤ were set here for values at or beyond the usual limits of such assays
HLA-A*02:12 = test: as above
HLA-A*02:16 = test: as above
HLA-A*02:19 = test: as above
HLA-A*03:01 = test: as above
HLA-A*23:01 = test: as above
HLA-A*29:02 = test: as above
HLA-A*26:01 = test: IEDB peptide-MHC binding, purified MHC/competitive/fluorescence; filed as Kd, often an IC50 or EC50 that approximates it; ≥ and ≤ were set here for values at or beyond the usual limits of such assays
HLA-A*69:01 [7] = test: as above
HLA-B*15:01 [8] = test: as above; settings: source organism: Orthohantavirus tulaense
HLA-B*18:01 [9] = test: as above
HLA-B*27:03 = test: as above
HLA-B*39:01 [10] = test: as above
HLA-B*46:01 = test: as above
HLA-B*51:01 = test: as above
HLA-B*57:01 [11] = test: as above
HLA-A*02:11 = test: IEDB peptide-MHC binding, purified MHC/direct/fluorescence; filed as Kd, often an IC50 or EC50 that approximates it; ≥ and ≤ were set here for values at or beyond the usual limits of such assays; settings: source organism: Vibrio vulnificus CMCP6
HLA-A*02:01 [12] = test: IEDB peptide-MHC binding, purified MHC/competitive/fluorescence; filed as Kd, often an IC50 or EC50 that approximates it; ≥ and ≤ were set here for values at or beyond the usual limits of such assays; settings: source organism: Vibrio vulnificus YJ016
[13] = source organism: Marburg virus - Musoke, Kenya, 1980
[14] = source organism: Orthomarburgvirus marburgense
[15] = source organism: Orthohantavirus tulaense
[16] = source organism: Vibrio vulnificus CMCP6
[17] = source organism: Vibrio vulnificus YJ016

Sequence LFLSFCSLF has a Kd (HLA-A*01:01) of no less than 20 µM, a Kd (HLA-A*02:01 [1]) of no less than 20 µM and a Kd (HLA-A*11:01; [13]) of no less than 20 µM. The Kd (HLA-A*24:03; [13]) was 0.245 µM, the Kd (HLA-A*26:03) was no less than 20 µM and the Kd (HLA-A*68:02; [13]) was no less than 20 µM. The Kd (HLA-A*69:01 [2]) was no less than 20 µM, the Kd (HLA-B*07:02) was no less than 20 µM and the Kd (HLA-B*15:01 [3]) was no less than 20 µM. The Kd (HLA-B*15:09) was no less than 20 µM, the Kd (HLA-B*18:01 [4]) was no less than 20 µM and the Kd (HLA-B*39:01 [5]) was no less than 20 µM. It also gave a Kd (HLA-B*57:01 [6]) of no less than 20 µM, a Kd (HLA-B*58:01) of 1.38 µM and a Kd (HLA-A*02:06) of no less than 20 µM. For the same sequence, the Kd (HLA-A*26:02) was no less than 20 µM, the Kd (HLA-A*31:01; [14]) was no less than 20 µM and the Kd (HLA-B*15:17; [14]) was no less than 20 µM.
Work on SLMSRVVYK yielded a Kd (HLA-A*02:03; [15]) of no less than 20 µM, a Kd (HLA-A*02:12; [15]) of no less than 20 µM and a Kd (HLA-A*02:16; [15]) of no less than 20 µM. It also gave a Kd (HLA-A*02:19; [15]) of no less than 20 µM, a Kd (HLA-A*03:01; source organism: Orthohantavirus prospectense) of 0.0772 µM and a Kd (HLA-A*23:01; [15]) of no less than 20 µM. The Kd (HLA-A*24:03; [15]) was no less than 20 µM, the Kd (HLA-A*29:02; [15]) was no less than 20 µM and the Kd (HLA-A*68:02; [15]) was no less than 20 µM. It also gave a Kd (HLA-A*26:01; [15]) of no less than 20 µM, a Kd (HLA-A*31:01; [15]) of 0.0031 µM and a Kd (HLA-A*69:01 [7]; [15]) of no less than 20 µM. For the same sequence, the Kd (HLA-B*15:01 [8]) was no less than 20 µM, the Kd (HLA-B*15:17; [15]) was no less than 20 µM and the Kd (HLA-B*18:01 [9]; [15]) was no less than 20 µM. The Kd (HLA-B*27:03; [15]) was no less than 20 µM, the Kd (HLA-B*39:01 [10]; [15]) was no less than 20 µM and the Kd (HLA-B*46:01; [15]) was no less than 20 µM. For the same sequence, the Kd (HLA-B*51:01; [15]) was no less than 20 µM and the Kd (HLA-B*57:01 [11]; [15]) was no less than 20 µM.
SVMSTFFWE was tested, and the Kd (HLA-A*02:03; [16]) was no less than 20 µM, the Kd (HLA-A*02:11) was no less than 20 µM and the Kd (HLA-A*02:12; [16]) was no less than 20 µM. For the same sequence, the Kd (HLA-A*02:16; [16]) was no less than 20 µM, the Kd (HLA-A*02:19; [16]) was no less than 20 µM and the Kd (HLA-A*03:01; [16]) was no less than 20 µM. It also gave a Kd (HLA-A*11:01; [16]) of 0.35 µM, a Kd (HLA-A*23:01; [16]) of no less than 20 µM and a Kd (HLA-A*24:03; [16]) of no less than 20 µM. It also gave a Kd (HLA-A*29:02; [16]) of no less than 20 µM, a Kd (HLA-A*68:02; [16]) of no less than 20 µM and a Kd (HLA-A*02:01 [12]) of no less than 20 µM. It also gave a Kd (HLA-A*26:01; [17]) of no less than 20 µM, a Kd (HLA-A*69:01 [7]; [17]) of no less than 20 µM and a Kd (HLA-B*15:17; [17]) of no less than 20 µM. The Kd (HLA-B*18:01 [9]; [17]) was no less than 20 µM, the Kd (HLA-B*27:03; [17]) was no less than 20 µM and the Kd (HLA-B*39:01 [10]; [17]) was no less than 20 µM. It also gave a Kd (HLA-B*46:01; [17]) of no less than 20 µM, a Kd (HLA-B*51:01; [17]) of no less than 20 µM and a Kd (HLA-B*57:01 [11]; [17]) of no less than 20 µM.
